Laboratory results: the supplement of paper PMC12042874
± gives the uncertainty stated by the source.

Experiment: amyloid nucleation score (Sup35N fusion, yeast selection) (log enrichment); library NNK3; higher = more nucleation; inactive = no reads after selection
In short: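 Growth for 7 days at 30°C on medium lacking adenine and uracil followed a 24-hour induction with 100 μM copper sulfate of psi-negative yeast expressing peptides of 20 random codons fused to Sup35N. Input and output plasmid inserts were sequenced with Illumina, and sequences with under 100 input reads were excluded. Nucleation score is the DiMSum log enrichment of output over input reads, centred on the mode score of non-aggregating sequences.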

Substance	amyloid nucleation score
TTHVILCLCNL	3.07 ± 0.073
LSYGRGVTVLYVLWSYFISR	inactive
ANLRSLTR	inactive
ICGNPLVLLMNNSVRLG	0.092 ± 0.64
TLFWMSYWMRPSNIHCCVRM	inactive
IWSIQLSFKIASSCNFATG	inactive
LGWLLVTNWTSTYAGSLHDG	inactive
NVANRGLLHMELSVNKDWAM	0.699 ± 0.16
CKLYHIIGLYLGVVVL	inactive
DSNLVFFGSIFFTVLMWLTK	inactive
LGIGVKYSTGWCFVIMSSAM	inactive
TYWVGWML	inactive
CSQIPLHKLTMCMLY	inactive
ELSHQVCYSVGCACETSDGQ	inactive
FANQPGVNYRFTPPSCCFLT	inactive
KYLGG	inactive
DSNWRNMRGLHFY	inactive
MPILLCLVHPPLYSSDPFQK	inactive
FRMNSLRVSLMESVCSSHT	1.1 ± 0.11
NSRSFNTFKYNYGMLGFGVA	-0.612 ± 0.84
MGRGWRHGCWLGRILRFWYD	inactive
VMGDSVRIAELQIWAEINGL	1.07 ± 0.14
TSLLINVVLMVNRPGCP	1.67 ± 0.061

Substance	amyloid nucleation score
WSNSCYEC	inactive
VGESDKLHFAH	inactive
TRSFCVSK	inactive
NRRGSSVVRI	inactive
YFRSLGLAIGCNR	inactive
NNEYQRKNLWFKGKVWLCMY	inactive
YSYNQIWFLLV	inactive
SWGFHEWSVACQICRYVDRP	inactive
SIRNFVTSENTVLSDIKPWR	inactive
DFLVVYNAMCDKELVDTGEI	inactive
IQPCFIGIGVGYSRFVGRFF	0.982 ± 0.22
KFTFMQIKISPFDTCIQGWW	-0.067 ± 0.4
RLRVM	inactive
WLFLLRPRAGSTHPSTHLDF	0.823 ± 0.1
MWVNATSSV	inactive
VTAFCWGLQRIVGIECSMLE	inactive
WTSHPYWSL	inactive
VVFYTSGARDRICHMDVHRP	0.113 ± 0.69
YIGCCWYSSCDRVSYRYSVM	2.78 ± 0.06
LFLVYGGYIFAQRKFAFNSS	inactive
IGVQATVICYWRIMNRGHKR	inactive
QALYDWILWNHWTTKVGPVA	inactive
CYAGRLSETSNWLLLCVELE	inactive

Substance	amyloid nucleation score
FMCNNRSILGICIFYDLRRN	2.64 ± 0.081
DGFYYSALLMFLV	inactive
VGRHAYRC	inactive
LFPYMDCNSGTELFYGFIVQ	inactive
ISEVLLCAFVVYIMRKR	0.953 ± 0.11
IGRVTSMGRMLHGNW	inactive
ERDFLF	inactive
VLKASNFV	inactive
RYLYTRNLDMTRTL	inactive
IRLKQQDFEGSGKLFNGGHL	inactive
IEQPY	inactive
RNFMSFRWPVLKLQRRVP	inactive
YLSTL	inactive
LEWERPS	inactive
VGKLLVGTWWHGSYRSMSKR	inactive
IWWILIDP	inactive
IGPIWVPYHMSIIRSLLFGI	inactive
LLLGDVVVMTEAYYIMSPVP	inactive
SRSIMSVLACHRMCERGPIW	0.827 ± 0.19
GGLHSGVGKMAYELNMYS	inactive
VMSCYAYYFTTRQDFPFLWD	inactive
QLAKG	inactive
RNFARCRFNPPMTHHSFFNT	inactive

Substance	amyloid nucleation score
IWRLCNVPICPSLRGAGHYS	inactive
VYNGSFWRVNLVNF	1.09 ± 0.095
FRYPIYGFFGMTGPTNSLTA	inactive
DIAKCNACGHENMFCRWMCV	inactive
RVRCDWCFGRGVCMTAIRQD	-0.147 ± 1.1
RTVDSH	inactive
YGDEASPLSFCIDHEDRVKV	inactive
QRIESGPLDY	inactive
CKYSMRLDCLARNNDLKVLL	inactive
PYTTLYSFRNC	inactive
EGRDQDNIPLMNTTGMCFGA	inactive
VQGSTIGG	inactive
LSKFFRWV	inactive
RFWRCWAMINR	inactive
YKLERTRPDSFMVCERINGH	inactive
CRISSPAGVNLLDSSRLSRL	inactive
LRKGVRLLFSHHVIIK	inactive
QFYTDSFLHIIFSWCGPLDQ	inactive
LSEMANDHEHVYSYRKAHYM	-0.626 ± 0.8
DSDVWEPCFELEESKL	inactive
IMGALLTYSRTTGRVNYRMW	inactive
LHLNGAYMAFLIVMSCMHFS	inactive
ISAGNTRSTYRLGSWDTSRE	inactive

Substance	amyloid nucleation score
LFCLKIKLEAERRYLQGLRH	1.72 ± 0.09
WRYVFLVC	inactive
NKGMPGPHGANSRYTGVDVG	inactive
WCFCFMCSFMTKFFHYLGS	inactive
SSIDEIGSFV	inactive
TYLLNGTILLNPCKLC	inactive
NSRYQILITLDLC	inactive
IAHISLQNIVDVMGPNRSMY	1.44 ± 0.14
DFHVLRYVLFRWMWIIWRKG	inactive
TRVDGTYKYRLFDLCDAIKF	inactive
IKGIPKSIGSSSLGLHNHTV	inactive
NLSVIMLVVCMLTINNIYMS	1.29 ± 0.11
VILMFDSCGGFDW	inactive
NSLLGHF	inactive
DSFRHEGRVWLWYSSTTKRF	inactive
KVFMGRCCWLCSPY	1.42 ± 0.1
LKNGLYYHHYFTFLMAYIHQ	inactive
TTCWVYMLVILA	1.38 ± 0.077
PCLFSQDRVRKTRSHKVNAE	inactive
PNYKNYLGGNRVVS	inactive
YGFAYV	-0.336 ± 1.1
RHELTNRREK	inactive
FFSCGDKLSFF	inactive

Substance	amyloid nucleation score
RRLQV	inactive
TRDFRTCNGLANKVRSKVCS	inactive
GNNCPRVSIFNREAKIDNVL	inactive
KLWPM	inactive
HRINWRIHTTYISTYWKKCM	inactive
YGRRMAHAGGVTGYGNLWCH	inactive
CLLSYSQPLGKGFGSTRDRC	inactive
QLSHKACLWLSCSSGIPLGS	inactive
KFVDDRKVCLVLHH	inactive
EVYDLESGVSITYMCMCVVL	inactive
SSKLFL	inactive
SVWESHVWHAHTQI	inactive
SFSSFVFTMEALASAVSTHH	inactive
SSIAMHCILIVFLKGLCVFR	inactive
CEGMKCYVVLTRLRLKKTRT	inactive
LNKLTKIVVSHKGLCFELGG	inactive
NVRSNFLVADVVVFVRKIVR	2.42 ± 0.072
KLRVFV	inactive
TELVLRAVSSLGVLVIFTTS	inactive
NSGTKQTLGYSSFRD	inactive
CRRPKRNH	inactive
MKKWDNNSLVLPLKGSGKED	inactive
ISGTFACQNSTFFSGYREAI	inactive

Substance	amyloid nucleation score
NSRRCRNFASHRWPPEFRNS	inactive
WLSLFVIMPCLWGFCSMDSN	1.47 ± 0.11
LLSFLTVRLCVFRTYFW	inactive
WVPLDHVGGA	inactive
PWSWWTHYTSGCQYQFGYRG	-0.749 ± 1.1
IMVRSIISGFRLMESRKLDS	inactive
VLGYYAKGDRSSWSRGYSY	0.194 ± 0.87
NRIGSKTCKFFMALGM	inactive
AVLCVCIHRLPFYFPPLLKM	inactive
SLLGSRNRRSGWTQFVKLVW	inactive
WDLRSCCDNVSTFEL	inactive
VRFTHKCSLG	inactive
HNLNIHYMISRVNAYTCTFI	2.5 ± 0.074
VVATTLEFMWRHMGTYFWGI	inactive
SGDPSSLEDIGFVIYWRIYI	inactive
LFCRVWSFGVLMCFE	inactive
DTREN	inactive
DGGRTSLLLTEKKVR	inactive
AVMYSCQYRDKWVEVAMVTS	inactive
VKLSL	inactive
AILCTIVCNASWAEEQSA	1.09 ± 0.17
GRISAKSVVTSWRGVGPYSV	inactive
FLSGVTWHAYMIHSVFMDRC	0.881 ± 0.21
